Consider 15 molecules from US20230064703A1 (NANJING GENSCRIPT BIOTECH, published 2023).

Assay in all cases: cell-based or functional assay
Assay [1] deals with T1, GITR expressed on the effector cell line of the reporter gene assay.
The target in assay [2] is T1, GITR expressed on the effector cell …. This is another data set of the same source.
For assay [3] the target is unchanged. This is another data set of the same source.

Positions count from the first letter of the chain named.

B1: anti-GITR mouse monoclonal antibody 134D7B3 (antibody, V domains shown)
VH: QVQLQQSGAELVRPGTSVKVSCKASGYAFNNYVIEWVKQRPGQGLEWIGVIYPGNGGSDYNEKFKVKAKLTADKSSSTAYMQLSSLTSDDSAVYFCARFYYFGSSYAMDYWGQGTSVTVSS
VL: DIQMTQTTSSLSASLGDRVTISCRASQDISNYLNWYQQKPDGTIKLLIYYTSRLHSGVPSRFSGSGSGTDYSLTITNLEQEDIATYFCQQGNTLPFTFGSGTKLEIK
As to B1, the “EC50, GITR functional reporter gene assay (luciferase)” value (shortened to “EC50 … (luciferase)”) in assay [1] was determined as 1.05 µg/mL.

B2: anti-GITR mouse monoclonal antibody 163H12G7 (antibody, V domains shown)
VH: QVQLQQSGAELASPGASVKMSCKASGYTFSTYTVHWVKQRPGQGLEWIGYINPASGYTNYNQKFKDRATLTADRSSTTAYMQLSGLTSEDSAVFYCARWSYWYFDVWGTGTTVTVSS
VL: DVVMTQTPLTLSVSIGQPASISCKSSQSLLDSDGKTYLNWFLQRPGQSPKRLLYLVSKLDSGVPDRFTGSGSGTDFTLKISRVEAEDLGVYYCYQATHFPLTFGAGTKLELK
For the molecule B2, in assay [1], the “EC50 … (luciferase)” value was determined as 0.0137 µg/mL.

B3: chimeric antibody 270C5C10(Ha-L) (human IgG1) (antibody, V domains shown)
VH: EVQLQQSGPEVVKPGASVKISCKASGYTFTDNYMNWAKQSQGKSLEWIGDINPNNGGSRYKEKFKDKATLTVDKSSRTAYMELRSLTSEDSAVYYCANPGSYGFAYWGQGTLVTVSA
VL: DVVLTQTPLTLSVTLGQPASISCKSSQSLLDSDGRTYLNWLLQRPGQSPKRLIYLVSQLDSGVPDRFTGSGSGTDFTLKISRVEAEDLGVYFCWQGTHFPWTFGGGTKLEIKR
In the case of B3, in assay [2], the “Bottom, GITR functional reporter gene assay” value came to 18000; the “EC50, GITR functional reporter gene assay” value stood at 0.386 µg/mL; the “LogEC50, GITR functional reporter gene assay” value was -1.41; the “Span, GITR functional reporter gene assay” value was found to be 31500. The “Top, GITR functional reporter gene assay” value in assay [2] was 49500. The “EC50, GITR functional reporter gene assay (GenScript, NFkB luciferase)” value (shortened to “EC50 … (GenScript, NFkB luciferase)”) in assay [3] was about 0.0374 µg/mL.

B4: humanized antibody 225H7D12 VH1.1 + VL1.2 (antibody, V domains shown)
VH: QVQLVQSGAEVKKPGASVKVSCKTTGYRFTGYWIEWVRQAPGQGLEWIGEILPGSGVSNNNEKFRDRATMTADTSISTAYMELSRLRSDDTAVYYCARKASYYTMDYWGQGTLVTVSS
VL: DIQMTQSPSSLSASVGDRVTITCTASSSVSSFYFHWYQQKPGKAPKLWIYSISNLASGVPSRFSGSGSGTSYTLTISSLQPEDFATYYCHQYHRSPRTFGGGTKLEIK
As to B4, the “EC50 … (GenScript, NFkB luciferase)” value in assay [3] is 1.17 µg/mL.

B5: humanized antibody 225H7D12 VH1.4 + VL1.2 (antibody, V domains shown)
VH: B4 VH with R38K, M70F, S77N
VL: B4 VL
As for B5, in assay [3], the “EC50 … (GenScript, NFkB luciferase)” value is 1.46 µg/mL.

B6: humanized antibody 225H7D12 VH1.3 + VL1.2 (antibody, V domains shown)
VH: B4 VH with T24A, T25S, R38K, S77N
VL: B4 VL
As for B6, the “EC50 … (GenScript, NFkB luciferase)” value in assay [3] was 1.18 µg/mL.

B7: humanized antibody 270C5C10 VH1.2 + VL1 (antibody, V domains shown)
VH: QVQLVQSGAEVKKPGASVKVSCKASGYTFTDNYMNWVRQAPGQSLEWIGDINPNNGGSRYKEKFKDRATLTVDTSIRTAYMELSRLRSDDTAVYYCANPGSYGFAYWGQGTLVTVSS
VL: DVVMTQSPLSLPVTLGQPASISCKSSQSLLDSDGRTYLNWFQQRPGQSPRRLIYLVSQLDSGVPDRFSGSGSGTDFTLKISRVEAEDVGVYYCWQGTHFPWTFGGGTKLEIK
For B7, in assay [3], the “EC50 … (GenScript, NFkB luciferase)” value stood at 0.0745 µg/mL.

B8: humanized antibody 270C5C10 VH1.4 + VL1 (antibody, V domains shown)
VH: B7 VH with V37A, A40S
VL: B7 VL
Regarding B8, in assay [3], the “EC50 … (GenScript, NFkB luciferase)” value is about 0.0355 µg/mL.

B9: anti-GITR mouse monoclonal antibody 223F12C4 (antibody, V domains shown)
VH: QVQLQQSGAELVKPGASVKVSCKASGYSFTSYWIHWVKQRPGQGLEWIGRIHPSDGDIDHNEKFKGKATLTVDKSSSTAYMQLTSLTSEDSAVYYCLCYIMDYWGQGTSVTVSS
VL: DIQMNQSPSSLSASLGDTIAITCHASQNINVWLSWYQQKPGNIPKLLIYKAAKLQTGVPSRFSGSGSGTGFTLTISSLQPEDIATYYCHQGQDYPLTFGAGTKLELK
For B9, in assay [1], the “EC50 … (luciferase)” value was 0.151 µg/mL.

B10: chimeric antibody 225H7D12 (human IgG1) (antibody, V domains shown)
VH: QVQLQQSGAEVMKPGASVKLSCKTTGYRFTGYWIEWVKQRPGHGLEWIGEILPGSGVSNNNEKFRDKATFTADTSSNTAYIQLSSLTTDDSAIYYCARKASYYTMDYWGQGTSVTVSS
VL: QIVLTQSPAIMSASLGERVTMTCTASSSVSSFYFHWYQQKPGSSPKLWIYSISNLASGVPTRFSGSGSGTSYSLTISSMEAEDAATYYCHQYHRSPRTFGGGTKLEIKR
B10: in assay [2], the “Bottom, GITR functional reporter gene assay” value came out at 16800; the “EC50, GITR functional reporter gene assay” value was 0.0796 µg/mL; the “LogEC50, GITR functional reporter gene assay” value was -1.1; the “Span, GITR functional reporter gene assay” value was determined as 37000. In addition, the “Top, GITR functional reporter gene assay” value in assay [2] was 53800. Besides, in assay [3], the “EC50 … (GenScript, NFkB luciferase)” value amounted to 1.26 µg/mL.

B11: anti-GITR mouse monoclonal antibody 225H7D12 (antibody, V domains shown)
VH: B10 VH
VL: QIVLTQSPAIMSASLGERVTMTCTASSSVSSFYFHWYQQKPGSSPKLWIYSISNLASGVPTRFSGSGSGTSYSLTISSMEAEDAATYYCHQYHRSPRTFGGGTKLEIK
For B11, the “EC50 … (luciferase)” value in assay [1] stood at 0.0796 µg/mL.

B12: anti-GITR mouse monoclonal antibody 45F1F3 (antibody, V domains shown)
VH: DVQLQESGPGLVKPSQSLSLTCTVTGYSITIDYAWNWIRQFPGNKLEWMGYISNSGYTSYNPSLKSRISFTRDTSKNQFFLQLNSVTPEDSATYYCTRSGHYDLFDYWGQGTTLTVSS
VL: DVVMTQAPLTLSVTIGQPASISCKSSQSLFDRDGKTYLSWLLERPGQSPKRLIYLVSNLDSGVPDRFTGSGSGTDFTLKISRVEAEDLGVYYCWQGTHFPYTFGGGTKVEMK
With B12, the “EC50 … (luciferase)” value in assay [1] was determined as 0.0145 µg/mL.

B13: humanized antibody 45F1F3 VH1.4 + VL1.1 (antibody, V domains shown)
VH: DVQLQESGPGLVKPSQTLSLTCTVTGYSITIDYAWNWIRQPPGKGLEWMGYISNSGYTSYNPSLKSRITFSRDTSKNQFFLKLSSVTAADTAVYYCTRSGHYDLFDYWGQGTTVTVSS
VL: B12 VL with A7S, T10S, S12P, I15L, E43Q, K50R, T68S, L88V, M111I
With B13, the “EC50 … (GenScript, NFkB luciferase)” value in assay [3] came to 1.09 µg/mL.

B14: humanized antibody 45F1F3 VH1.3 + VL1.1 (antibody, V domains shown)
VH: B13 VH with D1Q, I68V, F70I
VL: B12 VL with A7S, T10S, S12P, I15L, E43Q, K50R, T68S, L88V, M111I
On to B14, for which the “EC50 … (GenScript, NFkB luciferase)” value in assay [3] is 1.08 µg/mL.

B15: chimeric antibody 45F1F3 (human IgG1) (antibody, V domains shown)
VH: B12 VH
VL: DVVMTQAPLTLSVTIGQPASISCKSSQSLFDRDGKTYLSWLLERPGQSPKRLIYLVSNLDSGVPDRFTGSGSGTDFTLKISRVEAEDLGVYYCWQGTHFPYTFGGGTKVEMKR
Take B15: in assay [2], the “Bottom, GITR functional reporter gene assay” value amounted to 16300; the “EC50, GITR functional reporter gene assay” value was determined as 0.0145 µg/mL; the “LogEC50, GITR functional reporter gene assay” value is -1.84; the “Span, GITR functional reporter gene assay” value was 32000. For the same molecule, in assay [2], the “Top, GITR functional reporter gene assay” value was found to be 48300. For the same molecule, the “EC50 … (GenScript, NFkB luciferase)” value in assay [3] was about 1.09 µg/mL.
